Experimental data reported in PMC10397247.

Legend:
Experiment in all cases: two-hybrid library CCmax;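 also: natural log of median RNA to DNA barcode read ratio; higher means stronger binding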
[1] = molecular target: T1, 4H133-AA
T1 chain: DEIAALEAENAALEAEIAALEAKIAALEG

[2] = molecular target: T2, 4H1349-AA; details: mean of both orientations
T2 chain: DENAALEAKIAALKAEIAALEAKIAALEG

[3] = molecular target: T3, 4H1384-AA; details: mean of both orientations
T3 chain: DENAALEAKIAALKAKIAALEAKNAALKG

[4] = molecular target: T4, 4H1449-AA; details: mean of both orientations
T4 chain: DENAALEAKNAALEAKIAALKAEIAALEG

[5] = molecular target: T5, 4H1593-AA; details: mean of both orientations
T5 chain: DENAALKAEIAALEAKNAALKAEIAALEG

[6] = molecular target: T6, 4H1878-AA; details: mean of both orientations
T6 chain: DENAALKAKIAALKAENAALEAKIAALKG

[7] = molecular target: T7, 4H235-AA; details: mean of both orientations
T7 chain: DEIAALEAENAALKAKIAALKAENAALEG

[8] = molecular target: T8, 4H249-AA; details: mean of both orientations
T8 chain: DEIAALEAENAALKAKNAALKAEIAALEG

[9] = molecular target: T9, 4H2580-AA; details: mean of both orientations
T9 chain: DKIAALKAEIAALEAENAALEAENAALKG

[10] = molecular target: T10, 4H2604-AA; details: mean of both orientations
T10 chain: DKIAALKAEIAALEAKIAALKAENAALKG

[11] = molecular target: T11, 4H2621-AA; details: mean of both orientations
T11 chain: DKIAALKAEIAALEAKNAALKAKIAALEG

[12] = molecular target: T12, 4H2760-AA; details: mean of both orientations
T12 chain: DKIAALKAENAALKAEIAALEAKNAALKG

[13] = molecular target: T13, 4H2774-AA; details: mean of both orientations
T13 chain: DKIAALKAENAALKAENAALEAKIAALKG

[14] = molecular target: T14, 4H2903-AA; details: mean of both orientations
T14 chain: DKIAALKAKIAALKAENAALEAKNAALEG

[15] = molecular target: T15, 4H2947-AA
T15 chain: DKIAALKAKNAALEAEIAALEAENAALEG

[16] = molecular target: T16, 4H2961-AA; details: mean of both orientations
T16 chain: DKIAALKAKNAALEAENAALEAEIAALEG

[17] = molecular target: T17, 4H3049-AA; details: mean of both orientations
T17 chain: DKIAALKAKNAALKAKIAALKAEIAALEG

[18] = molecular target: T18, 4H3094-AA; details: mean of both orientations
T18 chain: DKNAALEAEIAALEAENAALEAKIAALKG

[19] = molecular target: T19, 4H324-AA; details: mean of both orientations
T19 chain: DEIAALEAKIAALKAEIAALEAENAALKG

[20] = molecular target: T20, 4H341-AA; details: mean of both orientations
T20 chain: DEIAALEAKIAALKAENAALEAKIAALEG

[21] = molecular target: T21, 4H3449-AA; details: mean of both orientations
T21 chain: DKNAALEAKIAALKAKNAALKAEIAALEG

[22] = molecular target: T22, 4H3619-AA; details: mean of both orientations
T22 chain: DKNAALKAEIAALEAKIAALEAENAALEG

[23] = molecular target: T23, 4H3629-AA; details: mean of both orientations
T23 chain: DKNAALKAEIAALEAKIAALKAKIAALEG

[24] = molecular target: T24, 4H3777-AA; details: mean of both orientations
T24 chain: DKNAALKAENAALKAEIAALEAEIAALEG

[25] = molecular target: T25, 4H380-AA; details: mean of both orientations
T25 chain: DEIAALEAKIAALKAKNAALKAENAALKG

[26] = molecular target: T26, 4H3915-AA; details: mean of both orientations
T26 chain: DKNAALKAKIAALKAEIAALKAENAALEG

[27] = molecular target: T27, 4H3974-AA; details: mean of both orientations
T27 chain: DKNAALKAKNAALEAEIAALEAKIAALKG

[28] = molecular target: T28, 4H432-AA; details: mean of both orientations
T28 chain: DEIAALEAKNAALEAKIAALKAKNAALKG

[29] = molecular target: T29, 4H446-AA; details: mean of both orientations
T29 chain: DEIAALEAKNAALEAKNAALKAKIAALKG

[30] = molecular target: T30, 4H63-AA; details: mean of both orientations
T30 chain: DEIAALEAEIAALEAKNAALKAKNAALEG

DEIAALEAENAALEAEIAALEAKIAALEG [4H133-AA] showed an interaction score [1] of -0.665, an interaction score [2] of 0.224 and an interaction score [3] of 0.598. The interaction score [4] was 0.176, the interaction score [5] was -0.948 and the interaction score [6] was 1.23. It also gave an interaction score [7] of 0.197, an interaction score [8] of 0.33 and an interaction score [9] of -1.27. It also gave an interaction score [10] of -0.647, an interaction score [11] of 0.704 and an interaction score [12] of 1.33. The interaction score [13] was 0.342, the interaction score [14] was -1.62 and the interaction score [15] was -0.964. For the same binder, the interaction score [16] was -1.33, the interaction score [17] was 2.17 and the interaction score [18] was -1.05. The interaction score [19] was -0.986, the interaction score [20] was -1.11 and the interaction score [21] was 0.625. It also gave an interaction score [22] of -0.325, an interaction score [23] of 1.24 and an interaction score [24] of 0.631. The interaction score [25] was -1.13, the interaction score [26] was 1.08 and the interaction score [27] was 0.688. The interaction score [28] was -0.168, the interaction score [29] was 0.854 and the interaction score [30] was -1.37.
